From article PMC4511006 (2015) come the findings set out here.

Ends that are not written are not given here.

The target of this experiment is C1q CLR (collagen-like region) (UniProt P02745 31-109; P02747 31-112). As to the kind of experiment: SPR. In general terms: In SPR one partner is held on a chip, and binding of the other changes the refractive index at the surface.

The term koff denotes a measure of how fast the partners let go of each other. Lower therefore signals slow dissociation.

In turn, IALILEPICCQERAA (cysteine pairing not given here; also: acetylated, position not given here) [Acetylated PA (AcPA)] yielded a koff of 0.000219 s⁻¹.
